In the nanobody polyreactivity screen of Harvey et al. (2022):

Assay: yeast display, Sf9 membrane polyspecificity reagent, FACS + sequencing; frameworks hold sequencing errors
In short: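 Genes from sorted yeast were amplified by colony PCR, read by MiSeq 2 × 250 sequencing and filtered on CDR length. These cells carried a synthetic nanobody library in Saccharomyces cerevisiae BJ5465 and were sorted by FACS into low and high (top ~1%) gates on anti-HA and streptavidin fluorescence. Polyreactivity is labelled according to the gate of origin.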

Sequence	polyreactivity (PSR sort gate)
QVQLVESGGGLVQAGGSHRLSCAASGFIFGINVMGWYRQAPGKERELVAAISGSGSSTYYADSVKGRFTISRDNAKNTVYLQMNSLKPEDTAVYYCAARSVSTLRFTSRKLRYDYWGQGTQVTVSS	high polyreactivity
QVQLVESGGGLVQAGGSHRLSCAASGFIFYSNAMGWYRQAPGKERELVAAITSGGSTYYADSVKGRFTISRDNAKNTVYLQMNSLKPEDTAVYYCNKARRWRGYDYWGQGTLVTVSS	high polyreactivity
QVQLVESGGGLVQAGGSHRLSCAASGFTFRHYTMGWYRQAPGKERELVAVITRSGGSTYYADSVKGRFTISRDNAKNTVYLQMNSLKPEDTAVYYCAVGRTYNADGYWGQGTQVTVSS	high polyreactivity
QVQLVESGGGLVQAGGSHRLSCAASGFTFYIYAMGWYRQAPGKERELVAAINIGGGGTYYADSVKGRFTISRDNAKNTVYLLMHSLKPEDTAVYDCAAVYCYDYYCTEYDYWGQGTQVNVSS	low polyreactivity
QVQLVESGGGLVQAGGSHRLSCAASGIIFYRNAMGWYRQAPGKERELVATITVSSGSTYYADSVKGRFTISRDNAKNTVYLLMYSLKPEDTAVYYCNARYYYFSVRYKYDFNYWGQGTQVTVSS	high polyreactivity
QVQLVESGGGLVQAGGSHRLSCAASGITFYGYARGWYRQAPGKERELVAAISGNGGRTYYADSVKGRFTISRDYAKNTVYLQMNSLKPEDTAVYYCNVKVRSRRTGDRYDYWGQGTQVTVSS	high polyreactivity
QVQLVESGGGLVQAGGSHRLSCAASGLTFTDNAMGRYRQAPGKERELVAAMSRCGGTTYYAASVKGRFTISRDNAKNTVYLQMNSLKPEDTAVYYCNADTYRRLYGNYDYWGQGTQLTVSS	high polyreactivity
QVQLVESGGGLVQAGGSHRLSCAASGRIFALNTMRWYRQAPGKEREFVAAITTSGGSTYADSVKGRFTISRDNAKNTVYLQMNSLKPEDTAVYYCNKEYYHKWAPTYDYWGQGTEVTVSS	low polyreactivity
QVQLVESGGGLVQAGGSHRLSCAASGRIFDDNALGWYCQAPGKERELVAAITGGGRTNYADSVKGRFTISRDNAKNTVYLQMNSLKPEDTAVSYCAAATYGWVIYIYDYWGQGTQVNVSS	low polyreactivity
QVQLVESGGGLVQAGGSHRLSCAASGRIFGYNAMGWYRQAPGKEWELVAAISSPGNTYYADSVKGRFTISRDNAKNTVYLQMNSLKPEDTAVYYCARSWLYSQRRYDYWGQGTQVTVSS	low polyreactivity
QVQLVESGGGLVQAGGSHRLSCAASGRIFNWYAMGWYRHAPGKDRALVARISSGDITSYADSVKGRFSISRDNAKNTVYLQMNILKPEDTAVYYCAARQWFLYDYWGQGTQVTVSS	low polyreactivity
QVQLVESGGGLVQAGGSHRLSCAASGRIFPSYAMGWYRQAPGKQRELVAAISKYGGRTYYADSVKGRFTISRDNAKNTVYLQMNSLKPEDTEVYYCAADGFRYYSWTRFSYYSGYDYWGQGSQVTVSS	high polyreactivity
QVQLVESGGGLVQAGGSHRLSCAASGRIFRPNAMGWYRQAPGKERELVASISQSGGSTYADSVKGRFTISRDNAKNTVYLQMNSLKPEDTAVYYCAKVQGWRYQIYDYWGQGTQVTVSS	low polyreactivity
QVQLVESGGGLVQAGGSHRLSCAASGRIFRRYAMGWYRQARGQERELDAGITGSGTSTYYADSVKGRFTISRDNAKNTVYLQMNSLKPEDTAVYYCAADRGRGYRYNYWGQGTQVTVSS	high polyreactivity
QVQLVESGGGLVQAGGSHRLSCAASGRIFYRYVMGWYRQAPGKERELVAAISRGGGTNYADSVKGRFTISRDNAKNTVYLQMNSLKPEDTAVYYCAARGSPGAGYYWGQGTQVTVSS	high polyreactivity
QVQLVESGGGLVQAGGSHRLSCAASGRSFKYYAMGWYRQAPGKERELVARISPSSGNTYYADSVKGRFTISRDNAKNTVYLQMNSLKPEDTGVYVCATVPHYNGFNYWGQGTQVTVSS	high polyreactivity
QVQLVESGGGLVQAGGSHRLSCAASGRTFPVYAMGWYRHAPGKERELVAAIRGRSVRTYYADSVKGRFTISRDNAQNSVYLQMNSLKPEDTAVYYCAAYYFNPGMDYWGQGTQVTVSS	high polyreactivity
QVQLVESGGGLVQAGGSHRLSCAASGRTFPYYAMGWYRQAPGKERELVAAITRGVRTHYADSVKGRFTISRDNAKNTVYLQMNSLKPEDTAVYYCAREDWGSYSDMDSWGQGTQVTVSS	low polyreactivity
QVQLVESGGGLVQAGGSHRLSCAASGRTFRDNTLGWYRQAPGKERELVAAISRRGGSTYYADSVKGRFTISRDNANNTVYLQMNSLKPVDTADYYCNAVFLTYGSNRGEYWGQGTQVTVSS	high polyreactivity
QVQLVESGGGLVQAGGSHRLSCAASGSIFVVYAMGWYRQAPGKERELVASIRTGGSTNYADSVKGRFTISRDNAKNTVYLQMNSLKPEDTAVYYCAAASWNSNRHYYVARYYYWGQGTQVTVSS	high polyreactivity
QVQLVESGGGLVQAGGSHRLSCAASGSIFYSYAMGWYRQAPGKERELVAAITYDTGRTYYADSVKGRFTISRDNAKNTVYLQMNSLKPEDTAVYYCAVRPGYYWGYWPRFGYWGQGTQVTVSS	low polyreactivity
